Our source for the activity and activity (relative to I-SceI) values is patent US20150291967.

Assay in all cases: cell_activity
For data set [1], the system named is TALEN ALS2_T02 right monomer (synthetic construct).
Data set [2] concerns TALEN ALS2_T01 left monomer (synthetic construct).
Data set [3] has as its system TALEN ALS1_T02 right monomer (synthetic construct).
Data set [4] deals with TALEN ALS2_T01 right monomer (synthetic construct).
For data set [5], the system named is TALEN ALS2_T02 left monomer (synthetic construct).
Data set [6] concerns TALEN ALS1_T02 left monomer (synthetic construct).
In data set [7] the test system is TALEN ALS1_T01 left monomer (synthetic construct). The following applies: yeast beta-galactosidase reporter, pair with P2, 37 C (0.83 at 30 C).
In data set [8] the test system is TALEN ALS1_T01 right monomer (synthetic construct). To be noted: yeast beta-galactosidase reporter, pair with P1, 37 C (0.83 at 30 C).

As for “CTGTCTCCTATTTCCTA (double strand) [ALS2_T02 right half-site (top strand)]”, the activity in data set [1] (endogenous site, N. benthamiana protoplasts, pair with P7, control 0.10%) stood at 66.9 % NHEJ. Besides, the activity (relative to I-SceI) in data set [1] (yeast beta-galactosidase reporter, pair with P7, 37 C (0.9 at 30 C)) was 1.
As to “TAGCTTGTTCCACATTT (double strand) [ALS2_T01 left half-site]”, in data set [2] (endogenous site, N. benthamiana protoplasts, pair with P6, control 0.25%), the activity worked out at 74 % NHEJ. In data set [2] (yeast beta-galactosidase reporter, pair with P6, 37 C (0.9 at 30 C)), this sequence came in with an activity (relative to I-SceI) of 1.
“TATAAGTTGATTCTTAA (double strand) [ALS1_T02 right half-site (top strand)]” registered an activity in data set [3] (endogenous site, N. benthamiana protoplasts, pair with P3, control 0.55%) of 4.9 % NHEJ. Also, in data set [3] (yeast beta-galactosidase reporter, pair with P3, 37 C (0.90 at 30 C)), the activity (relative to I-SceI) came to 0.95.
In data set [4] (endogenous site, N. benthamiana protoplasts, pair with P5, control 0.25%), “TGTCATGCTGGGTCAGA (double strand) [ALS2_T01 right half-site (top strand)]” yielded an activity of 74 % NHEJ. The sequence also returned an activity (relative to I-SceI) in data set [4] (yeast beta-galactosidase reporter, pair with P5, 37 C (0.9 at 30 C)) of 1.
For the sequence “TTCTCTCGAGTCCTAGG (double strand) [ALS2_T02 left half-site]”, in data set [5] (endogenous site, N. benthamiana protoplasts, pair with P8, control 0.10%), the activity was 66.9 % NHEJ. This sequence displayed an activity (relative to I-SceI) in data set [5] (yeast beta-galactosidase reporter, pair with P8, 37 C (0.9 at 30 C)) of 1.
Regarding “TTGGACTTGTATGGGTT (double strand) [ALS1_T02 left half-site]”, the activity in data set [6] (endogenous site, N. benthamiana protoplasts, pair with P4, control 0.55%) was determined as 4.9 % NHEJ. The activity (relative to I-SceI) in data set [6] (yeast beta-galactosidase reporter, pair with P4, 37 C (0.90 at 30 C)) amounted to 0.95.
Regarding “TTTAGTGCGATAAAGTT (double strand) [ALS1_T01 left half-site]”, in data set [7], the activity (relative to I-SceI) stood at 0.93.
“TTTTATTTCGTAAGCTA (double strand) [ALS1_T01 right half-site (top strand)]” came in with an activity (relative to I-SceI) in data set [8] of 0.93.
